Consider 16 molecules from PMC6555819, “Comprehensive study of nuclear receptor DNA binding provides a revised framework for understanding receptor specificity”.

The target of one series is RXRa (Homo sapiens, UniProt P19793). Nature of the series: no ligand; PBM; 180 nM; PBS pH 7.4, 2% milk, 0.02% Triton X-100, 1 mM DTT, BSA, 0.4 mg/ml salmon testes DNA. The conditions noted are these: tags: His cleaved; chain copies: 2; label: surface-attached array probe.
The next series deals with PPARg:RXRa (Homo sapiens, UniProt P37231;P19793 full;full). Nature of the series: no ligand; PBM; 180 nM : 90 nM RXRa; PBS pH 7.4, 2% milk, 0.02% Triton X-100, 1 mM DTT, BSA, 0.4 mg/ml salmon testes DNA. To be noted: tags: His kept;His cleaved; copies: 1;1; label: surface-attached array probe.
PPARg:RXRa, sequence (P37231 29-505, chain 1 of 2): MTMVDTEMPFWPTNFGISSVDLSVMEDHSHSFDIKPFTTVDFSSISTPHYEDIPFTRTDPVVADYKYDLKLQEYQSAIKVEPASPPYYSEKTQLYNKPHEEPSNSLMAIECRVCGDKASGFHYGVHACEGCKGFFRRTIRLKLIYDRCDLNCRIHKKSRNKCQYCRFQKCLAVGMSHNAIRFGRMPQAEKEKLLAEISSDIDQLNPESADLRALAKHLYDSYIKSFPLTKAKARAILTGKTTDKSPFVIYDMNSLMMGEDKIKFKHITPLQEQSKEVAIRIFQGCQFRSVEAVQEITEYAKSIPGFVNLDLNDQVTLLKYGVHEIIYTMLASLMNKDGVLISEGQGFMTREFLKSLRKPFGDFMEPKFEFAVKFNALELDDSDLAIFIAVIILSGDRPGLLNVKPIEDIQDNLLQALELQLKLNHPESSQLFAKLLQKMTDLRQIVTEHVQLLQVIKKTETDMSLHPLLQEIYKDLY
PPARg:RXRa, sequence (P19793 whole entry, chain 2 of 2): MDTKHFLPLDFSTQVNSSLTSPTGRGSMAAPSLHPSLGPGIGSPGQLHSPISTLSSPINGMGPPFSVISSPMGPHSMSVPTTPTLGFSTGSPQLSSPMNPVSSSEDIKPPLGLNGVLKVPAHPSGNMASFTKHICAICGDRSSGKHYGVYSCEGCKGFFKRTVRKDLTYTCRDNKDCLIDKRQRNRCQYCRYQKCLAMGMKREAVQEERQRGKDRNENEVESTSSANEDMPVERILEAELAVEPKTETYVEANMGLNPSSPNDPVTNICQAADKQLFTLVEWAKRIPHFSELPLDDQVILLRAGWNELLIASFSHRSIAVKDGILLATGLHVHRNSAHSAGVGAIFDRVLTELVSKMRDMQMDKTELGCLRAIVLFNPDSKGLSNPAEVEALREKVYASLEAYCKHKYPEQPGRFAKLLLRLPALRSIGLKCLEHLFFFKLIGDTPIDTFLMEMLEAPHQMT
In the next series the target is RARa:RXRa (Homo sapiens, UniProt P10276;P19793 full;full). Nature of the series: no ligand; PBM; 270 nM : 90 nM RXRa; PBS pH 7.4, 2% milk, 0.02% Triton X-100, 1 mM DTT, BSA, 0.4 mg/ml salmon testes DNA. The conditions noted are these: tags: His kept;His cleaved; copies: 1;1; label: surface-attached array probe. The method, boiled down: (§1)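 Custom Agilent 4×180K protein-binding microarrays carried double-stranded probes. Their 34-nt variable regions held direct-repeat seeds, single-nucleotide variants, half-site ablations and random human genomic background sequences. Arrays were incubated 1 h with ligand-free nuclear receptor dimers in PBS pH 7.4, 2% milk, 0.02% Triton X-100, 1 mM DTT, 0.2 mg/mL BSA and 0.4 mg/ml salmon testes DNA. Antibodies against each partner (one per run) detected binding, and scanned fluorescence was regression-normalized. Binding z-scores use random background probes as reference.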
RARa:RXRa, sequence (P10276 whole entry, chain 1 of 2): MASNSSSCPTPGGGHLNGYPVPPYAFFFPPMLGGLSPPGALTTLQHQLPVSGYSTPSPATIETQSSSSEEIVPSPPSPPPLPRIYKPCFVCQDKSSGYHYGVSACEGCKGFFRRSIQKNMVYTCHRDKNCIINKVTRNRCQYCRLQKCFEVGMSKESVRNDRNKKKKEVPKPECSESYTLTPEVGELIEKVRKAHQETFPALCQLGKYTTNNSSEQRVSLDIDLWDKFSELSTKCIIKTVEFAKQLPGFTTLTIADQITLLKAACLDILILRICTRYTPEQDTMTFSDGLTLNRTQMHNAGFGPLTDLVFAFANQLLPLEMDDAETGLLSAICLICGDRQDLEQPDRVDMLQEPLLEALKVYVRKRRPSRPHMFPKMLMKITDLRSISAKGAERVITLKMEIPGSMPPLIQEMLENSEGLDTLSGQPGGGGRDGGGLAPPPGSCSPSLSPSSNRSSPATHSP
RARa:RXRa, sequence (P19793 whole entry, chain 2 of 2): as the sequence (P19793 whole entry, chain 2 of 2) above

The target in another series is PPARa:RXRa (Homo sapiens, UniProt Q07869;P19793 full;full). Described as above. The conditions noted are these: tags: GST kept;His cleaved; copies: 1;1; label: surface-attached array probe. In a few lines:
as §1

Another series addresses PXR:RXRa (Homo sapiens, UniProt O75469;P19793 full;full). Described as above. To be noted: tags: His kept;His cleaved; copies: 1;1; label: surface-attached array probe. The method, boiled down:
as §1

In a further series the target is VDR:RXRa (Homo sapiens, UniProt P11473;P19793 full;full). The series is described as above. To be noted: tags: His kept;His cleaved; copies: 1;1; label: surface-attached array probe. In a few lines:
as §1

The next series has as its target RARb:RXRa (Homo sapiens, UniProt P10826;P19793 full;full). The description is as above. The conditions noted are these: tags: His kept;His cleaved; copies: 1;1; label: surface-attached array probe. In a few lines: as §1
Another series addresses RARg:RXRa (Homo sapiens, UniProt P13631;P19793 full;full). The series is described as above. To be noted: tags: His kept;His cleaved; copies: 1;1; label: surface-attached array probe. The method, boiled down: as §1
In the next series the target is LXRb:RXRa (Homo sapiens, UniProt P55055;P19793 full;full). The description is as above. To be noted: tags: His kept;His cleaved; copies: 1;1; label: surface-attached array probe. In a few lines: as §1
Another series concerns the target LXRa:RXRa (Homo sapiens, UniProt Q13133;P19793 full;full). The series is described as above. The conditions noted are these: tags: His kept;His cleaved; copies: 1;1; label: surface-attached array probe. In a few lines:
as §1

PXR:RXRa, sequence (O75469 whole entry, chain 1 of 2): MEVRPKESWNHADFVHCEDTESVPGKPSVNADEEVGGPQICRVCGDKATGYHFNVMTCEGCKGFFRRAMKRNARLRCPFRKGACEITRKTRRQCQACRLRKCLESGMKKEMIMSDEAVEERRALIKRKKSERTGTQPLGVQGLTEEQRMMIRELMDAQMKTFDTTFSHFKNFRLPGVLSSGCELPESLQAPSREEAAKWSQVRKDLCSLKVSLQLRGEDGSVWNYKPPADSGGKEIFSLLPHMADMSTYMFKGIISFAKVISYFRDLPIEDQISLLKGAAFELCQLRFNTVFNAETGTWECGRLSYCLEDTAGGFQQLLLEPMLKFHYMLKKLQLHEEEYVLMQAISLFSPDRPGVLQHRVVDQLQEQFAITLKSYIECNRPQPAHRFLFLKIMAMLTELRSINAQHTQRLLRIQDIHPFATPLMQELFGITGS
PXR:RXRa, sequence (P19793 whole entry, chain 2 of 2): as the sequence (P19793 whole entry, chain 2 of 2) above
PPARa:RXRa, sequence (Q07869 whole entry, chain 1 of 2): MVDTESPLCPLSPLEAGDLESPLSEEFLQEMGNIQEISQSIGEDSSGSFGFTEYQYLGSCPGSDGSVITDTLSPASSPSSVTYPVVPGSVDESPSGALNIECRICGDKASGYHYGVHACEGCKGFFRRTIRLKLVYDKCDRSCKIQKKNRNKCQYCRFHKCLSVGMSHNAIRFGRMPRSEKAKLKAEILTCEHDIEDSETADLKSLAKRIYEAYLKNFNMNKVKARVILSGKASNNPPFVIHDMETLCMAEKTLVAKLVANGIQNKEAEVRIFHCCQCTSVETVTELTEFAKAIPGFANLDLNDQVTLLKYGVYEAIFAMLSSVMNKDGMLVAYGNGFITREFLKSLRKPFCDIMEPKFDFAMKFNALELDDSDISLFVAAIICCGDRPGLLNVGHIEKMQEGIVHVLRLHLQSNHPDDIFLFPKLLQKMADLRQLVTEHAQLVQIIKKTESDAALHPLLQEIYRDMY
PPARa:RXRa, sequence (P19793 whole entry, chain 2 of 2): as the sequence (P19793 whole entry, chain 2 of 2) above
RXRa, sequence (P19793 whole entry): as the sequence (P19793 whole entry, chain 2 of 2) above

B1: NRC3_wobSeed30_DR1_C12T_o1 (dsDNA)
DNA 1: GCACTAGCAGGTCAAGGGTCACTCAAGATTAGTCCGGCGATTGACAGCGTAGAATGAAGG
DNA 2: CCTTCATTCTACGCTGTCAATCGCCGGACTAATCTTGAGTGACCCTTGACCTGCTAGTGC
B1: the binding signal in the series with RXRa is 8.53 PBM z-score against 500 random probes; with PPARg:RXRa, 11.2 PBM z-score against 500 random probes; with RARa:RXRa it was 8.23 PBM z-score against 500 random probes.

B2: NRC3_wobSeed44_DR1_A18G_o1 (dsDNA)
DNA 1: GCTGAATGAGGTTAAAGGTCAGGGAACGTGGCGTCGGCGATTGACAGCGTAGAATGAAGG
DNA 2: CCTTCATTCTACGCTGTCAATCGCCGACGCCACGTTCCCTGACCTTTAACCTCATTCAGC
In the case of B2, the binding signal was 9.53 PBM z-score against 500 random probes in the series with RXRa; 11.9 PBM z-score against 500 random probes with PPARg:RXRa; 6.96 PBM z-score against 500 random probes with PPARa:RXRa; 6.68 PBM z-score against 500 random probes with PXR:RXRa; 9.15 PBM z-score against 500 random probes with RARa:RXRa.

B3: NRC3_random_hg19_6_o1 (dsDNA)
DNA 1: GCACTCAGAGAGTTGAAGTGATTTGCCCAAGACCACGCGATTGACAGCGTAGAATGAAGG
DNA 2: CCTTCATTCTACGCTGTCAATCGCGTGGTCTTGGGCAAATCACTTCAACTCTCTGAGTGC
Turning to B3, the figures for the binding signal with PPARg:RXRa, in the series with VDR:RXRa and with RARa:RXRa were 0.15 PBM z-score against 500 random probes, -0.28 PBM z-score against 500 random probes and 0.23 PBM z-score against 500 random probes, respectively.

B4: NRC3_random_hg19_13_o1 (dsDNA)
DNA 1: GCCACATCTGTAATCCCAGCACTTTGGGAGGCCAAGGCGATTGACAGCGTAGAATGAAGG
DNA 2: CCTTCATTCTACGCTGTCAATCGCCTTGGCCTCCCAAAGTGCTGGGATTACAGATGTGGC
Turning to B4, the binding signal with RXRa was 0.22 PBM z-score against 500 random probes; with PPARg:RXRa, 0.3 PBM z-score against 500 random probes; with RARa:RXRa, 0.01 PBM z-score against 500 random probes.

B5: NRC3_wobSeed73_DR3_C28T_o1 (dsDNA)
DNA 1: GCCAAACTAGGTCACAGAGGTCAAAGTTCGTGCGTAGCGATTGACAGCGTAGAATGAAGG
DNA 2: CCTTCATTCTACGCTGTCAATCGCTACGCACGAACTTTGACCTCTGTGACCTAGTTTGGC
B5: the binding signal in the series with RXRa is 8.65 PBM z-score against 500 random probes; with PPARg:RXRa, 10.8 PBM z-score against 500 random probes; in the series with PXR:RXRa it was 7.41 PBM z-score against 500 random probes; with RARa:RXRa it was 8.8 PBM z-score against 500 random probes.

B6: NRC3_wobSeed39_DR1_A19T_o1 (dsDNA)
DNA 1: GCCGAACTAGGTCAAAGGTCAGTGAAAGGCGACGTAGCGATTGACAGCGTAGAATGAAGG
DNA 2: CCTTCATTCTACGCTGTCAATCGCTACGTCGCCTTTCACTGACCTTTGACCTAGTTCGGC
Take B6: the binding signal with RXRa is 9.27 PBM z-score against 500 random probes; with PPARg:RXRa, 14 PBM z-score against 500 random probes; in the series with RARb:RXRa, 5.46 PBM z-score against 500 random probes; with PPARa:RXRa, 7.58 PBM z-score against 500 random probes; with PXR:RXRa, 6.52 PBM z-score against 500 random probes; with RARa:RXRa, 8.51 PBM z-score against 500 random probes. Besides, the binding signal with RARg:RXRa was 8.09 PBM z-score against 500 random probes.

B7: NRC3_wobSeed31_DR1_A13C_o1 (dsDNA)
DNA 1: GCTCATATAGGTCAAAGGTGAAAGTCGGTGTGGTAAGCGATTGACAGCGTAGAATGAAGG
DNA 2: CCTTCATTCTACGCTGTCAATCGCTTACCACACCGACTTTCACCTTTGACCTATATGAGC
For B7, the binding signal in the series with RXRa was 8.68 PBM z-score against 500 random probes; with PPARg:RXRa, 11.9 PBM z-score against 500 random probes; with PPARa:RXRa, 6.9 PBM z-score against 500 random probes; with RARa:RXRa it was 7.84 PBM z-score against 500 random probes.

B8: NRC3_wobSeed31_DR1_G20C_o1 (dsDNA)
DNA 1: GCTCATATAGGTAAAAGGTCAAAGTCGGTGTGGTAAGCGATTGACAGCGTAGAATGAAGG
DNA 2: CCTTCATTCTACGCTGTCAATCGCTTACCACACCGACTTTGACCTTTTACCTATATGAGC
As to B8, the binding signal with RXRa was 8.7 PBM z-score against 500 random probes; in the series with PPARg:RXRa, 11.8 PBM z-score against 500 random probes; with PPARa:RXRa, 6.94 PBM z-score against 500 random probes; in the series with RARa:RXRa, 7.77 PBM z-score against 500 random probes.

B9: NRC3_random_hg19_307_o1 (dsDNA)
DNA 1: GCATGTTAGAGCTCATGGAGAAGTGTCCTATGTGATGCGATTGACAGCGTAGAATGAAGG
DNA 2: CCTTCATTCTACGCTGTCAATCGCATCACATAGGACACTTCTCCATGAGCTCTAACATGC
Regarding B9, the binding signal in the series with PPARg:RXRa is 0.17 PBM z-score against 500 random probes; with LXRb:RXRa, -0.8 PBM z-score against 500 random probes; with RARa:RXRa, -0.77 PBM z-score against 500 random probes.

B10: NRC3_wobSeed36_DR1_T20C_o1 (dsDNA)
DNA 1: GCCCGACTGGGGCAAAGGTCACCATACTCAGTACGAGCGATTGACAGCGTAGAATGAAGG
DNA 2: CCTTCATTCTACGCTGTCAATCGCTCGTACTGAGTATGGTGACCTTTGCCCCAGTCGGGC
In the case of B10, the binding signal is 8.25 PBM z-score against 500 random probes with RXRa, 12.5 PBM z-score against 500 random probes with PPARg:RXRa, 6.53 PBM z-score against 500 random probes in the series with PPARa:RXRa and 7.41 PBM z-score against 500 random probes in the series with RARa:RXRa.

B11: NRC3_random_hg19_59_o1 (dsDNA)
DNA 1: GCCAGTTCAAGACCAGCCTGGCCAACATGGTGAAACGCGATTGACAGCGTAGAATGAAGG
DNA 2: CCTTCATTCTACGCTGTCAATCGCGTTTCACCATGTTGGCCAGGCTGGTCTTGAACTGGC
For the molecule B11, the binding signal in the series with PPARg:RXRa is 0.03 PBM z-score against 500 random probes; in the series with LXRa:RXRa it was 0.49 PBM z-score against 500 random probes; with RARa:RXRa, -0 PBM z-score against 500 random probes.

B12: NRC3_wobSeed42_DR1_C19G_o1 (dsDNA)
DNA 1: GCTATACAGGGTCAAAGGGCAGAGTACGAATGTCGAGCGATTGACAGCGTAGAATGAAGG
DNA 2: CCTTCATTCTACGCTGTCAATCGCTCGACATTCGTACTCTGCCCTTTGACCCTGTATAGC
For the molecule B12, the figures for the binding signal with RXRa, with PPARg:RXRa and with RARa:RXRa were 8.22 PBM z-score against 500 random probes, 9.96 PBM z-score against 500 random probes and 7.26 PBM z-score against 500 random probes, respectively.

B13: NRC3_wobSeed32_DR1_A11G_o1 (dsDNA)
DNA 1: GCTCTTGTAGGTCAAAGGTTAAGAAAGCCGAAGCCTGCGATTGACAGCGTAGAATGAAGG
DNA 2: CCTTCATTCTACGCTGTCAATCGCAGGCTTCGGCTTTCTTAACCTTTGACCTACAAGAGC
For B13, the binding signal is 9.29 PBM z-score against 500 random probes with RXRa, 12.7 PBM z-score against 500 random probes in the series with PPARg:RXRa, 7.1 PBM z-score against 500 random probes in the series with PPARa:RXRa and 8.25 PBM z-score against 500 random probes with RARa:RXRa.

B14: NRC3_wobSeed43_DR1_A20C_o1 (dsDNA)
DNA 1: GCCCAGACAGGTGAAAGGTCACTCAGTCTGGTACGCGCGATTGACAGCGTAGAATGAAGG
DNA 2: CCTTCATTCTACGCTGTCAATCGCGCGTACCAGACTGAGTGACCTTTCACCTGTCTGGGC
Regarding B14, the binding signal is 8.23 PBM z-score against 500 random probes with RXRa, 10.4 PBM z-score against 500 random probes in the series with PPARg:RXRa and 7.65 PBM z-score against 500 random probes with RARa:RXRa.

B15: NRC3_wobSeed26_DR1_T9C_o1 (dsDNA)
DNA 1: GCTCTAGTCGGTCAAAGGTCACACACTCGAAATGCGGCGATTGACAGCGTAGAATGAAGG
DNA 2: CCTTCATTCTACGCTGTCAATCGCCGCATTTCGAGTGTGTGACCTTTGACCGACTAGAGC
B15: the binding signal in the series with RXRa was 8.95 PBM z-score against 500 random probes; in the series with PPARg:RXRa, 12.4 PBM z-score against 500 random probes; with LXRa:RXRa, 6.67 PBM z-score against 500 random probes; in the series with PPARa:RXRa, 6.91 PBM z-score against 500 random probes; in the series with RARa:RXRa it was 8.22 PBM z-score against 500 random probes; in the series with RARg:RXRa, 8.36 PBM z-score against 500 random probes.

B16: NRC3_wobSeed46_DR1_G21A_o1 (dsDNA)
DNA 1: GCTTACCAAGGTGAAAGGTCATTGATGCACGCCTTGGCGATTGACAGCGTAGAATGAAGG
DNA 2: CCTTCATTCTACGCTGTCAATCGCCAAGGCGTGCATCAATGACCTTTCACCTTGGTAAGC
As to B16, the binding signal in the series with RXRa was 8.42 PBM z-score against 500 random probes; with PPARg:RXRa it was 10.9 PBM z-score against 500 random probes; with PPARa:RXRa, 6.54 PBM z-score against 500 random probes; with RARa:RXRa, 8.37 PBM z-score against 500 random probes.
